From patent US20060153775A1

How the values were obtained:
[1] = molecular target: binding target for TKPPR on HAEC (human aortic endothelial cells); experiment: fluorescent beads on confluent HAEC, static 30 min, image analysis
[2] = molecular target: binding target for TKPPR on HAEC (human aortic endothelial cells); experiment: competition of 2% D47 bubble binding to HAEC; VEGF121 100 ng/mL
[3] = molecular target: binding target for TKPPR on HAEC (human aortic endothelial cells); experiment: competition of 2% D47 bubble binding to HAEC; VEGF121 200 ng/mL
[4] = molecular target: binding target for TKPPR on HAEC (human aortic endothelial cells); experiment: competition of 2% D47 bubble binding to HAEC; VEGF121 400 ng/mL
[5] = molecular target: binding target for TKPPR on HAEC (human aortic endothelial cells); experiment: competition of 5% composition bubble binding to HAEC
[6] = molecular target: binding target for TKPPR on HAEC (human aortic endothelial cells); experiment: competition of 2% D47 bubble binding to HAEC; VEGF165 25 ng/mL
[7] = molecular target: binding target for TKPPR on HAEC (human aortic endothelial cells); experiment: competition of 2% D47 bubble binding to HAEC; VEGF165 100 ng/mL
[8] = molecular target: binding target for TKPPR on HAEC (human aortic endothelial cells); experiment: competition of 5% composition bubble binding to HAEC; VEGF165 25 ng/mL
[9] = molecular target: binding target for TKPPR on HAEC (human aortic endothelial cells); experiment: competition of 5% composition bubble binding to HAEC; VEGF165 50 ng/mL
[10] = molecular target: binding target for TKPPR on HAEC (human aortic endothelial cells); experiment: competition of 5% composition bubble binding to HAEC; VEGF165 75 ng/mL
[11] = molecular target: binding target for TKPPR on HAEC (human aortic endothelial cells); experiment: competition of 5% composition bubble binding to HAEC; VEGF165 12.5 ng/mL
[12] = molecular target: binding target for TKPPR on HAEC (human aortic endothelial cells); experiment: competition of 5% composition bubble binding to HAEC; VEGF165 6.25 ng/mL
[13] = molecular target: binding target for TKPPR on HAEC (human aortic endothelial cells); experiment: competition of 5% composition bubble binding to HAEC; KDR/Fc 125 ng/mL
[14] = molecular target: binding target for TKPPR on HAEC (human aortic endothelial cells); experiment: competition of 5% composition bubble binding to HAEC; KDR/Fc 250 ng/mL
[15] = molecular target: binding target for TKPPR on HAEC (human aortic endothelial cells); experiment: competition of 5% composition bubble binding to HAEC; KDR/Fc 500 ng/mL
[16] = molecular target: binding target for TKPPR on HAEC (human aortic endothelial cells); experiment: competition of 5% composition bubble binding to HAEC; KDR/Fc 1000 ng/mL
[17] = molecular target: binding target for TKPPR on HAEC (human aortic endothelial cells); experiment: competition of 5% composition bubble binding to HAEC; KDR/Fc 2500 ng/mL

Sequence of soluble human KDR/Fc chimera (R&D Systems Inc.) (P35968 20-764, change not shown): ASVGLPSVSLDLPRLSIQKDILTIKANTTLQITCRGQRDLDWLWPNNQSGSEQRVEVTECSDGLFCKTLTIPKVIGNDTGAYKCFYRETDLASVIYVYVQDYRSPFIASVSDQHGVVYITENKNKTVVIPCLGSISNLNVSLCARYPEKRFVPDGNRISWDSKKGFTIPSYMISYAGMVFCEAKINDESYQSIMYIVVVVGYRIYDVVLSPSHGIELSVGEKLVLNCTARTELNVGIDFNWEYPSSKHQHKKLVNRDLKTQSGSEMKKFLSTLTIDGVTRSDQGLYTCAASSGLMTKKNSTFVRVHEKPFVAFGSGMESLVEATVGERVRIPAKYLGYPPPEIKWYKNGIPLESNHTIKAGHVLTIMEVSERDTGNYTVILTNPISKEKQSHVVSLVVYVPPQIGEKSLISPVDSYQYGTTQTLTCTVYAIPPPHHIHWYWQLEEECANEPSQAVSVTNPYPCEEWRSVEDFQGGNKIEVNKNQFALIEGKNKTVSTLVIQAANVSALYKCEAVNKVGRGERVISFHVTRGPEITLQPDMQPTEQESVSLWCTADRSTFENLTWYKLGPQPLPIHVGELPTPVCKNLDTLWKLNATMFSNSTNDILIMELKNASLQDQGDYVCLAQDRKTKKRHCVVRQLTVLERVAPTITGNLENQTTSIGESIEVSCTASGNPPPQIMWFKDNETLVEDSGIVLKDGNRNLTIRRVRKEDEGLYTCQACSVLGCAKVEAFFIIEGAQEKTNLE

“BSA-conjugated fluorescent microspheres (from UniProt P02769 25-607)” gave an Integrated density of bound beads (arbitrary units) [1] of 1.61.
“VEGF121 (from UniProt P15692 27-147) (ligand)” gave a Bubbles Bound in presence of competitor [2] of 878 bubbles, a Bubbles Bound in presence of competitor [3] of 849 bubbles and a Bubbles Bound in presence of competitor [4] of 778 bubbles.
With “VEGF165 (from UniProt P15692 27-191) (ligand)” the IC50 [5] was 0.0125 µg/mL, the Bubbles Bound in presence of competitor [6] was 144 bubbles and the Bubbles Bound in presence of competitor [7] was 94 bubbles. For the same substance, the Bubbles Bound in presence of competitor [8] was 342 bubbles, the Bubbles Bound in presence of competitor [9] was 226 bubbles and the Bubbles Bound in presence of competitor [10] was 190 bubbles. It also gave a Bubbles Bound in presence of competitor [11] of 599 bubbles and a Bubbles Bound in presence of competitor [12] of 1180 bubbles.
“soluble human KDR/Fc chimera (R&D Systems Inc.) (from UniProt P35968 20-764) (Fc fusion)” showed a Bubbles Bound in presence of competitor [13] of 1030 bubbles, a Bubbles Bound in presence of competitor [14] of 786 bubbles and a Bubbles Bound in presence of competitor [15] of 342 bubbles. For the same substance, the Bubbles Bound in presence of competitor [16] was 75 bubbles and the Bubbles Bound in presence of competitor [17] was 84 bubbles.
